The values that follow are results of earlier work, collected in PMC4464172.

One may read the Kd as the free concentration of one partner at which half of the binding sites on the other are occupied at equilibrium, for simple one-to-one binding.

The target in this series is CAII (Homo sapiens) (UniProt P00918). In words: isothermal titration calorimetry. In general terms: Isothermal titration calorimetry measures the heat released or taken up as one component is titrated into another.

NBCe1-A (from UniProt Q9Y6R1): the Kd was 160 nM.
